± gives the uncertainty stated by the source.
Assay: protein stability index of a GFP-peptide fusion (yeast GPS) (PSI 1-4); higher = more stable; sorted into four equal gates, so the index is relative within each strain
Procedure, shortened: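 Peptides tiling yeast proteins in 17-residue segments were fused downstream of GFP, with Cherry expressed from the same plasmid. As a pooled library in yeast, mid-log cultures grown in leucine-free medium were sorted into four equal gates by GFP/Cherry fluorescence ratio. Gate plasmids were PCR-amplified and Illumina-sequenced, and barcodes linked reads to strains. Each peptide received a protein stability index equal to the sum of each gate's read frequency times its gate number.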

| Sequence | protein stability index (doa10∆) | protein stability index (pdr5∆) | protein stability index (san1∆) | protein stability index (ubr1∆) |
| --- | --- | --- | --- | --- |
| MPNDNKTPNRSSTPKFT [SIR4] | 2.66 ± 0.1 | 2.55 ± 0.19 | 3 ± 0.062 | 3.09 ± 0.086 |
| MPQSFTSIARIGDYILK [QCR7] | 3.35 ± 0.2 | 3.33 ± 0.12 | 3.04 ± 0.15 | 3.1 ± 0.062 |
| MPYTINELLEMVGLASG [BRR2] | 2.56 ± 0.049 | 2.31 ± 0.057 | 2.58 ± 0.052 | 2.52 ± 0.031 |
| MQAIADSFSVPNRLVKE [PRE2] | 2.94 ± 0.14 | 3.02 ± 0.24 | 3.03 ± 0.14 | – |
| MQKHGYIGEFEYIDDHR [RPS22A] | 3.16 ± 0.083 | 3.19 ± 0.084 | 2.93 ± 0.07 | 3.24 ± 0.093 |
| MQSTSPAVKQWDLLPEP [SWI1] | 2.73 ± 0.19 | 1.5 ± 0.11 | 1.36 ± 0.27 | 1.07 ± 0.14 |
| MRELGLIQSTEFPSITS [YOR098C/NUP1] | 3.12 ± 0.1 | 3.29 ± 0.092 | 2.21 ± 0.12 | 3.17 ± 0.078 |
| MRILPRETDPLVYNMTS [RPT4] | 3.07 ± 0.078 | 2.85 ± 0.065 | 3.18 ± 0.06 | 2.73 ± 0.057 |
| MSAAPVQDKDTLSNAER [GAL11] | 3.6 ± 0.15 | 3.07 ± 0.16 | 3.34 ± 0.073 | 3.04 ± 0.079 |
| MSAKAQNPMRDLKIEKL [RPL11A] | 3.39 ± 0.16 | 3.26 ± 0.11 | 3.46 ± 0.11 | 3.61 ± 0.24 |
| MSAPEAQQQKRGGFGGR [RPS2] | – | 3.25 ± 0.13 | 3.28 ± 0.1 | 3.33 ± 0.17 |
| MSASNANDFQLTIVTCK [SRB8] | 2.33 ± 0.044 | 2.41 ± 0.037 | 2.42 ± 0.043 | 2.03 ± 0.031 |
| MSDFQKEKVEEQEQQQQ [RPS20] | 2.87 ± 0.15 | 3.17 ± 0.15 | 3.16 ± 0.08 | 3.51 ± 0.085 |
| MSEQQWREQLRNRDIAL [ROX3] | 2.98 ± 0.071 | 2.85 ± 0.056 | 3 ± 0.054 | 2.42 ± 0.048 |
| MSGGKGGKAGSAAKASQ [HTA1] | 3.18 ± 0.1 | 3.13 ± 0.1 | 2.83 ± 0.1 | 3.24 ± 0.07 |
| MSIGTGSFKVVKGTNIS [RPO31] | – | 2.19 ± 0.15 | – | – |
| MSKIQVAHSSRLANLID [SMB1] | 1.47 ± 0.096 | 1.81 ± 0.15 | 1.09 ± 0.14 | 1.2 ± 0.15 |
| MSNQALYEKLEQTRTIL [SRB6] | 3.11 ± 0.3 | – | – | – |
| MSPFLRKVVKPSSLNSD [SRB4] | 2.41 ± 0.058 | 2.87 ± 0.061 | 2.03 ± 0.081 | 2.34 ± 0.044 |
| MSQAVNAKKRVFKTHSY [RPS15] | 2.57 ± 0.055 | 1.72 ± 0.035 | 2.19 ± 0.11 | 2.63 ± 0.061 |

| Sequence | protein stability index (doa10∆) | protein stability index (pdr5∆) | protein stability index (san1∆) | protein stability index (ubr1∆) |
| --- | --- | --- | --- | --- |
| MSSNTSSVMSSPRVEKR [YOR098C/NUP1] | 3.18 ± 0.084 | 3.18 ± 0.093 | 3.15 ± 0.078 | 3.01 ± 0.088 |
| MSTDVAAAQAQSKIDLT [SEM1] | 2.91 ± 0.079 | 2.82 ± 0.095 | 2.98 ± 0.079 | 2.88 ± 0.083 |
| MSTESALSYAALILADS [RPP1A] | 1.75 ± 0.062 | 1.97 ± 0.073 | 1.72 ± 0.073 | 1.83 ± 0.046 |
| MTAMRLMLKKLKNSIMS [YML031W/NDC1] | 1.6 ± 0.085 | 1.99 ± 0.087 | 2.16 ± 0.12 | 2.28 ± 0.059 |
| MTAVRRSTRIRTKSQVI [IRR1] | 2.9 ± 0.15 | 3.23 ± 0.081 | 3.42 ± 0.077 | 3.38 ± 0.1 |
| MTIDDSNRLLMDVDQFD [YJR042W/NUP85] | – | 3.63 ± 0.21 | 3.25 ± 0.098 | 3.51 ± 0.2 |
| MTLEDNNVTSNPSEFTP [SSN2] | 2.75 ± 0.069 | 3.03 ± 0.067 | 2.92 ± 0.068 | 3.16 ± 0.064 |
| MTTPQNISSSQQLLPAP [DSN1] | 2.82 ± 0.049 | 2.89 ± 0.04 | 2.74 ± 0.036 | 2.81 ± 0.038 |
| MTTQQEEQRSDTKNSKS [ISW2] | 3.26 ± 0.17 | 3.08 ± 0.18 | 2.73 ± 0.26 | 3.2 ± 0.19 |
| MTVAHLIECLLSKVAAL [RPB2] | 1.97 ± 0.084 | 2.01 ± 0.074 | 1.84 ± 0.1 | 1.54 ± 0.054 |
| MVEGDSYVETLDSMIEL [MED1] | 3.25 ± 0.084 | 3.24 ± 0.1 | 3.33 ± 0.051 | 3.19 ± 0.053 |
| MVGLASGNDSMAGKVLI [BRR2] | 3.24 ± 0.1 | 3.4 ± 0.092 | 3.21 ± 0.091 | 3.47 ± 0.058 |
| MVNIGLHNLNEYQIVYY [RGR1] | 1.65 ± 0.14 | 2.56 ± 0.1 | 2.11 ± 0.11 | 1.43 ± 0.27 |
| MVVQKYKLSTVVLRLYL [GRR1] | 1.66 ± 0.069 | 1.58 ± 0.049 | 1.38 ± 0.081 | 1.64 ± 0.068 |
| MWSVARAGQRGYHSRTS [RPL3] | 2.86 ± 0.11 | 3.14 ± 0.091 | 3.16 ± 0.069 | 3.11 ± 0.095 |
| NAFRKEELLLKDLEIRK [GAL11] | – | 3.09 ± 0.098 | 3.18 ± 0.079 | 3.03 ± 0.13 |
| NAGPNSNIPNLLRNLES [YDL088C/ASM4] | 2.35 ± 0.043 | 1.96 ± 0.043 | 2.23 ± 0.073 | 2.46 ± 0.031 |
| NANDETTAVEDEDDDLD [RPB4] | 3.47 ± 0.1 | 3.13 ± 0.1 | 3.25 ± 0.093 | 3.25 ± 0.092 |
| NATLQALYRVNDLRDMI [UBP6] | 2.74 ± 0.096 | 2.95 ± 0.093 | 3.03 ± 0.062 | 3.05 ± 0.075 |
| NAVISHANAAAVYFADT [SIN4] | 2.03 ± 0.049 | 2.29 ± 0.047 | 2.06 ± 0.051 | 2.3 ± 0.034 |

Reference: the supplement of paper PMC9732359
